The text below walks through data of paper PMC2873897 (Nature structural & molecular biology, 2010).

In series [1] the target is C-cadherin ectodomain (Xenopus laevis) (UniProt P33148). Put plainly: AUC. The settings on record: cited from earlier work.
In series [2] the target is E cadherin EC1-2 MR extension (mouse). Put plainly: AUC.
Series [3] has as its target E cadherin EC1-2 W2A (mouse). Put plainly: AUC.
Series [4] concerns the target E cadherin EC1-2 wild-type (WT) (mouse). Put plainly: AUC.
Series [5] has as its target E-cadherin ectodomain (Mus musculus) (UniProt P09803). Put plainly: AUC. Conditions: cited from earlier work.
Series [6] has as its target T cadherin EC1-2 G extension (mouse) (UniProt Q9WTR5). Kind of series: AUC.
In series [7] the target is T cadherin EC1-2 I2A (mouse). Kind of series: AUC.
The target of series [8] is T cadherin EC1-2 R14E/D140K (charge reversal rescue mutant) (mouse). Put plainly: AUC.
Series [9] has as its target T-cadherin EC1-2 wild-type (mouse) (UniProt Q9WTR5). Put plainly: SPR.
Series [10] deals with the molecule itself. Kind of series: AUC.
Series [11] deals with the molecule itself. Kind of series: AUC. The source holds these as a separate data set.

Bounds are passed on as bounds.

Broadly, the Kd is the free concentration of one partner at which half of the binding sites on the other are occupied at equilibrium, for simple one-to-one binding. On to “C-cadherin ectodomain (from UniProt P33148)”, for which the dissociation constant Kd in [1] is 64 µM.

As for “E cadherin EC1-2 MR extension (domain or fragment)”, the Kd in series [2] came out at 258 µM. With “E cadherin EC1-2 W2A (domain or fragment)”, the Kd in series [3] was 916 µM. As to “E cadherin EC1-2 wild-type (WT) (domain or fragment)”, the Kd in series [4] amounted to 98.6 µM. Consider “E-cadherin ectodomain (from UniProt P09803)”, for which the Kd in [5] is 80 µM. In turn, “T cadherin EC1-2 G extension (from UniProt Q9WTR5 140-355) (domain or fragment)” came in with a Kd in [6] of 16.5 µM.

In series [7], “T cadherin EC1-2 I2A (domain or fragment)” registered a Kd of 37.1 µM.

Take “T cadherin EC1-2 R14E/D140K (charge reversal rescue mutant) (domain or fragment)”: the Kd in series [8] turned out to be 149 µM. Take “T-cadherin EC1-2 R14S (domain or fragment)”: the fold reduction of the binding level against wild type in series [9] came out at 5 fold. For “T-cadherin EC1-2 R14S D140S (domain or fragment)”, the fold reduction of the binding level against wild type in [9] is above 5 fold.

B1: T-cadherin EC1-2 wild-type (domain or fragment, mouse)
chain: IVVSPILIPENQRQPFPRDVGKVVDSDRPEGSKFRLTGKGVDQDPKGTFRINENTGSVSVTRTLDRETIATYQLYVETTDASGKTLEGPVPLEVIVIDQNDNRPIFREGPYIGHVMEGSPTGTTVMRMTAFDADDPATDNALLRYNIRQQTPDKPSPNMFYIDPEKGDIVTVVSPALLDRETLENPKYELIIEAQDMAGLDVGLTGTATATIVIDD
For orientation: stoichiometry N means the number of molecules, sites or subunits per partner or assembly. With B1, the “stoichiometry N” value in “AUC [10]” was 2. Besides, binding in “AUC [11]” was put at a Kd of 41.4 ± 1.7 µM.
